# Results: IntAct's records for PubMed 11238952
# B1: Cyclic AMP-dependent transcription factor ATF-4 (Homo sapiens), P18848 (parent)
# chain: MTEMSFLSSEVLVGDLMSPFDQSGLGAEESLGLLDDYLEVAKHFKPHGFSSDKAKAGSSEWLAVDGLVSPSNNSKEDAFSGTDWMLEKMDLKEFDLDALLGIDDLETMPDDLLTTLDDTCDLFAPLVQETNKQPPQTVNPIGHLPESLTKPDQVAPFTFLQPLPLSPGVLSSTPDHSFSLELGSEVDITEGDRKPDYTAYVAMIPQCIKEEDTPSDNDSGICMSPESYLGSPQHSPSTRGSPNRSLPSPGVLCGSARPKPYDPPGEKMVAAKVKGEKLDKKLKKMEQNKTAATRYRQKKRAEQEALTGECKELEKKNEALKERADSLAKEIQYLKDLIEEVRKARGKKRVP
# Variants of: B1
# Conditions: with BTRC
row,effect of a mutation on the interaction,Variant
1,decreasing interaction,MTEMSFLSSEVLVGDLMSPFDQSGLGAEESLGLLDDYLEVAKHFKPHGFSSDKAKAGSSEWLAVDGLVSPSNNSKEDAFSGTDWMLEKMDLKEFDLDALLGIDDLETMPDDLLTTLDDTCDLFAPLVQETNKQPPQTVNPIGHLPESLTKPDQVAPFTFLQPLPLSPGVLSSTPDHSFSLELGSEVDITEGDRKPDYTAYVAMIPQCIKEEDTPSDNDNGICMSPESYLGSPQHSPSTRGSPNRSLPSPGVLCGSARPKPYDPPGEKMVAAKVKGEKLDKKLKKMEQNKTAATRYRQKKRAEQEALTGECKELEKKNEALKERADSLAKEIQYLKDLIEEVRKARGKKRVP [S219N]
2,decreasing interaction,MTEMSFLSSEVLVGDLMSPFDQSGLGAEESLGLLDDYLEVAKHFKPHGFSSDKAKAGSSEWLAVDGLVSPSNNSKEDAFSGTDWMLEKMDLKEFDLDALLGIDDLETMPDDLLTTLDDTCDLFAPLVQETNKQPPQTVNPIGHLPESLTKPDQVAPFTFLQPLPLSPGVLSSTPDHSFSLELGSEVDITEGDRKPDYTAYVAMIPQCIKEEDTPSDNNSGICMSPESYLGSPQHSPSTRGSPNRSLPSPGVLCGSARPKPYDPPGEKMVAAKVKGEKLDKKLKKMEQNKTAATRYRQKKRAEQEALTGECKELEKKNEALKERADSLAKEIQYLKDLIEEVRKARGKKRVP [D218N]

# Variants of: B1
# Conditions: with BTRC
# Remark: another data set of the same source
row,effect of a mutation on the interaction,Variant
1,disrupting interaction,MTEMSFLSSEVLVGDLMSPFDQSGLGAEESLGLLDDYLEVAKHFKPHGFSSDKAKAGSSEWLAVDGLVSPSNNSKEDAFSGTDWMLEKMDLKEFDLDALLGIDDLETMPDDLLTTLDDTCDLFAPLVQETNKQPPQTVNPIGHLPESLTKPDQVAPFTFLQPLPLSPGVLSSTPDHSFSLELGSEVDITEGDRKPDYTAYVAMIPQCIKEEDTPSDNDNGICMSPESYLGSPQHSPSTRGSPNRSLPSPGVLCGSARPKPYDPPGEKMVAAKVKGEKLDKKLKKMEQNKTAATRYRQKKRAEQEALTGECKELEKKNEALKERADSLAKEIQYLKDLIEEVRKARGKKRVP [S219N]
